Measurements published in article PMC5180188, “Structural Insights on PHA Binding Protein PhaP from Aeromonas hydrophila” (Scientific Reports, 2016).

Biological target: the molecule itself
Assay: SEC + other: dynamic light scattering; Superdex 200 in 50 mM Tris pH 8.0, 500 mM NaCl; DLS at 0.5 mg/ml in aqueous buffer

B1: PhaPAh (PHA binding protein PhaP, a phasin, from Aeromonas hydrophila strain 4AK4) (natural protein, UniProt O32470 1-116, looked up)
chain: MNMDVIKSFTEQMQGFAAPLTRYNQLLASNIEQLTRLQLASANAYAELGLNQLQAVSKVQDTQSLAALGTVQLETASQLSRQMLDDIQKLSALGQQFKEELDVLTADGIKKSTGKA
notes: PhaP (phasin) of Aeromonas hydrophila strain 4AK4, UniProtKB O32470, residues 1-116; called full-length in the methods; Cloned in pGEX-6P-1; residues left by PreScission cleavage are not described; Phasing used a (Ta6Br12)2+ soaked crystal and a selenomethionine-labelled crystal; the final model is of the native crystal; also called wild type; wild-type PhaPAh; not shown: GST, N-terminal, cleaved
stoichiometry N: 4
